Source: patent publication US20240026004A1 (SHANGHAI HUAOTA BIOPHARMACEUTICAL, published 2024)

T1: Rabbit PD-L1 (rabbit, UniProt G1SUI3 19-236)
T1 construct: also called PD-L1 in rabbits
T1 sequence: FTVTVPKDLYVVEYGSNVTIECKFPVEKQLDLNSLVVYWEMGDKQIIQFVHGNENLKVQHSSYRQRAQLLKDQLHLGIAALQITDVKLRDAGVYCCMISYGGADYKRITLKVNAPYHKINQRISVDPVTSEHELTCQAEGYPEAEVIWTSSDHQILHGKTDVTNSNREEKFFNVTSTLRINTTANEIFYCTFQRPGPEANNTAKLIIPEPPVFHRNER

T2: Human TGF-β2 (human, UniProt P61812 303-414)
T2 sequence (looked up): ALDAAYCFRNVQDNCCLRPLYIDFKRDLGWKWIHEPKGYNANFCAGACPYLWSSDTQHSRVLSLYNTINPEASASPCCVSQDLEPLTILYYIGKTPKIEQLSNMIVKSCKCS

T3: Mouse/Rat TGF-β2 (mouse/rat, UniProt P27090 303-414)
T3 sequence (looked up): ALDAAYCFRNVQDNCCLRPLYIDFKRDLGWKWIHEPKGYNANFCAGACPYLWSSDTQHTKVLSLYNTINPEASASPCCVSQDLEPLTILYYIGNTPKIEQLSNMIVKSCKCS

T4: human TGF-β3 (human, UniProt P10600 301-412)
T4 construct: also called TGF-β3 (R&D, 8420-B3-025)
T4 sequence (looked up): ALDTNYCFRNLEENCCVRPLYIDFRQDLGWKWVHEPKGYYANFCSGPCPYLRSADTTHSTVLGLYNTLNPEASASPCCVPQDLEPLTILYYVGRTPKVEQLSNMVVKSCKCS


How the values were obtained:
Mouse PD-L1 = target: T5, Mouse PD-L1 (mouse, UniProt Q9EP73 19-238, limits assumed); experiment: SPR (BIAcore), HB0028 captured on anti-human IgG (Fc) chip, PD-L1 as analyte
T5 construct: also called PD-L1 in mice
Protocol: (§1) Flow rate: 30 μl/min, binding: 120 s, dissociation: 600 s, analyzing the kinetic constants by Fit local using a 1:1 binding mode.

Rabbit PD-L1 = target: T1, Rabbit PD-L1; experiment: as above
Protocol: as §1

Rat PD-L1 = target: T6, Rat PD-L1 (rat, UniProt D4AE25 19-239); experiment: as above
T6 construct: also called PD-L1 in rats
Protocol: as §1

[1] = target: T7, human PD-L1 on CHO-K1 cells (human, UniProt Q9NZQ7 19-290); experiment: flow cytometry on CHO-K1 cells overexpressing human PD-L1, PE anti-human IgG detection, median fluorescence intensity
T7 construct: whole, on cells; also called CHO-K1 cells overexpressing human PD-L1; CHO-K1-OS8-PD-L1-8D6 cells
Protocol: CHO-K1 cells overexpressing human PD-L1 were taken and resuspended to 1×10⁶/ml and added into a 96-well plate at 20 μl/well.

[2] = target: T7, human PD-L1 on CHO-K1 cells; experiment: dual-target flow cytometry: sample pre-mixed with 3 µg/ml human TGF-β1, then CHO-K1 cells overexpressing human PD-L1, detection with PE anti-human TGF-β1 antibody (signal needs PD-L1 and TGF-β1 bound at once)
Protocol: After then, CHO-K1 cells overexpressing human PD-L1 were taken and resuspended to 1×10⁶/ml, added into a 96-well plate at 20 μl/well, and incubated for min after being mixed uniformly. The plate was washed twice by centrifugation with 1% BSA-PBS. Into each well was added 20 μl of PE fluorescence labeled anti-human TGF-β1 secondary antibody (1:100), incubated at room temperature for 15 min, washed three times by centrifugation, and then tested for the emission intensity at 580 nm by a flow cytometer Canto II (BD).

[3] = target: Human PD-L1 (BIAcore analyte) (human, UniProt Q9NZQ7 19-238, limits assumed); experiment: SPR (BIAcore), HB0028 captured on anti-human IgG (Fc) chip, PD-L1 as analyte, 1:1 fit
Protocol: as §1

Monkey PD-L1 = target: T8, Monkey PD-L1 (monkey); experiment: as above
T8 construct: also called PD-L1 in monkeys
Protocol: as §1

Human LAP = target: T9, Human LAP (human, UniProt P01137 30-278); experiment: SPR (BIAcore), HB0028 captured on Protein A chip, TGF-β protein as analyte
T9 construct: domain: LAP; also called precursor of TGF-β1 (Human LAP)
Protocol: as §1

Mouse precursor TGF-β1 = target: T10, Mouse precursor TGF-β1 (mouse, UniProt P04202 30-390, limits assumed); experiment: as above
T10 construct: Latent/precursor form as printed; also called Mouse Latent TGF-β1
Protocol: as §1

human TGF-β1 [4] = target: T11, human TGF-β1 (human, UniProt P01137 279-390); experiment: ELISA, TGF-β1 coated at 0.5 µg/ml, HRP anti-human IgG detection, OD450
T11 construct: also called TGF-β1 (ACRO, TG1-H4212); free TGF-β protein
Protocol: (§2) After washing with PBST, into the plates was added HRP-labeled anti-human IgG secondary antibody (1:5000 dilution) at 100 μl/well, reacted at room temperature for 30 min, and then washed with PBST. After developing with TMB color development solution for 5 min, the reaction was terminated with sulfuric acid, and OD450 value was read by a microplate reader.

Human TGF-β2 = target: T2, Human TGF-β2; experiment: SPR (BIAcore), HB0028 captured on Protein A chip, TGF-β protein as analyte, 1:1 fit
Protocol: as §1

Mouse/Rat TGF-β1 = Mouse/Rat TGF-β1 (mouse/rat, UniProt P04202 279-390); experiment: as above
Protocol: as §1

human TGF-β1 [5] = target: T11, human TGF-β1; experiment: as above
Protocol: as §1

Mouse/Rat TGF-β2 = target: T3, Mouse/Rat TGF-β2; experiment: as above
Protocol: as §1

human TGF-β3 = target: T4, human TGF-β3; experiment: ELISA, TGF-β3 coated at 0.5 µg/ml, HRP anti-human IgG detection, OD450
Protocol: as §2

T11 sequence (P01137 279-390 limits assumed): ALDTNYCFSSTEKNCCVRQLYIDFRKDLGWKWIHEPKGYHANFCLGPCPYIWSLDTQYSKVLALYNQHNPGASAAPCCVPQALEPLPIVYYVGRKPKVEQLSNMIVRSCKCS
T7 sequence (Q9NZQ7 19-290): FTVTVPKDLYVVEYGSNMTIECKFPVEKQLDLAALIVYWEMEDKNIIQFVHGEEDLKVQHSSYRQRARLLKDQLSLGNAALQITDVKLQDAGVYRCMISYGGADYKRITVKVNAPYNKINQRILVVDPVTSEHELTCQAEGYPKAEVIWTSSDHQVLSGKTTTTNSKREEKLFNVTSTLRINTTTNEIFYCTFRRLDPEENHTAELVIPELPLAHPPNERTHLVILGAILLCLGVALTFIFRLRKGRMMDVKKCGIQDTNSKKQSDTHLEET
Mouse/Rat TGF-β1, sequence (P04202 279-390 limits assumed): as the sequence (P01137 279-390 limits assumed) above, with A75S counted along it
T10 sequence (P04202 30-390 limits assumed): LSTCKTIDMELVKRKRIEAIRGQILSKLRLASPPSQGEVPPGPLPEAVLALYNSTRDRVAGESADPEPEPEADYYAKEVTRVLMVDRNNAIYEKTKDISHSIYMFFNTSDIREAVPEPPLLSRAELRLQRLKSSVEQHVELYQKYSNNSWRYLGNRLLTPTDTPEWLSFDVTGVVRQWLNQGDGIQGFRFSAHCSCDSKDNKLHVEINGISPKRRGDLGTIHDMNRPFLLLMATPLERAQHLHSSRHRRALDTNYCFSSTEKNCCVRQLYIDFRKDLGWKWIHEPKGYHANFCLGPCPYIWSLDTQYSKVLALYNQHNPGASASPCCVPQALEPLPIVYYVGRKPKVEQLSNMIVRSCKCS
Human PD-L1 (BIAcore analyte), sequence (Q9NZQ7 19-238 limits assumed): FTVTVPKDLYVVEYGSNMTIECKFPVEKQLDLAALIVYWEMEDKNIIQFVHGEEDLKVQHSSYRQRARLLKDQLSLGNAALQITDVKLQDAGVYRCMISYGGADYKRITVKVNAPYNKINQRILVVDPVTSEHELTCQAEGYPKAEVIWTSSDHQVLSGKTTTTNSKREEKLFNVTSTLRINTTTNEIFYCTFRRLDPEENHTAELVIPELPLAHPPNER
T5 sequence (Q9EP73 19-238 limits assumed): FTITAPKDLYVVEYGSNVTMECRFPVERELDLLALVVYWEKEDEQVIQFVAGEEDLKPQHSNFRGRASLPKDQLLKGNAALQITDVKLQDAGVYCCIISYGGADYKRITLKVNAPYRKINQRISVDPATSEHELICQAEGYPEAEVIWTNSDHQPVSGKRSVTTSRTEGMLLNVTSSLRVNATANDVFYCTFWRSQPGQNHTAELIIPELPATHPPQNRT
T6 sequence (D4AE25 entry or part of it limits assumed): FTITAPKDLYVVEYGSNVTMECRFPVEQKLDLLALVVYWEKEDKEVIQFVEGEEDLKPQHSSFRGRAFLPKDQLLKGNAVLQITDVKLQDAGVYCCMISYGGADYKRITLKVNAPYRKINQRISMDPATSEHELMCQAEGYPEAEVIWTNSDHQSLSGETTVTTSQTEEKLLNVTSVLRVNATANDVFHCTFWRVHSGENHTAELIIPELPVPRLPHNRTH
T9 sequence (P01137 30-278 limits assumed): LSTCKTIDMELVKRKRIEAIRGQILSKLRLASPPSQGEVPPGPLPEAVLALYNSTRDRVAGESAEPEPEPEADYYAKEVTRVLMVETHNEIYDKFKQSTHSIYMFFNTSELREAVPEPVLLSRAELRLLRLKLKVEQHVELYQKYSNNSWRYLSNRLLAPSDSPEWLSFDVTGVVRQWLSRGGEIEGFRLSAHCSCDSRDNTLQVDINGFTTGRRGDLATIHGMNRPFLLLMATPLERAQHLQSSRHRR

binding result (Mouse PD-L1) | binding result (Rabbit PD-L1) | binding result (Rat PD-L1) | EC50 [1] [nM] | EC50 [2] [nM] | Kd [3] [nM] | Kd (Monkey PD-L1) [nM] | binding result (Human LAP) | binding result (Mouse precursor TGF-β1) | EC50 (human TGF-β1 [4]) [nM] | Kd (Human TGF-β2) [nM] | Kd (Mouse/Rat TGF-β1) [pM] | Kd (human TGF-β1 [5]) [nM] | Kd (Mouse/Rat TGF-β2) [nM] | EC50 (human TGF-β3) [nM] | Binder
no binding | no binding | no binding | 3.77 | 4.22 | 2.45 | 5.87 | no binding | no binding | 0.347 | 1.56 | 2.75 | 0.0114 | 1.97 | – | HB0028 (bispecific antibody, human IgG1, kappa, also called N-fusion PD-L1/TGF-β bispecific antibody; heavy chain 500054 + light chain 400085) heavy: not shown light: DVVMTQTPLSLSVTPGQPASISCKSSQSLANSYGNTYLSWYLHKPGQSPQLLIYGISNRFSGVPDRFSGSGSGTDFTLKISRVEAEDVGVYYCLQGTHQPPTFGQGTKLEIKRTVAAPSVFIFPPSDEQLKSGTASVVCLLNNFYPREAKVQWKVDNALQSGNSQESVTEQDSKDSTYSLSSTLTLSKADYEKHKVYACEVTHQGLSSPVTKSFNRGEC
– | – | – | 1.85 | 1.61 | – | – | – | – | 0.955 | – | – | – | – | 1.51 | HB0029 (bispecific antibody, human IgG1, kappa, Heavy chain from N to C: VH of HB0023, wild-type human IgG1 constant region, GS linker, human TGF-βRII ECD 24-159; Same light chain as HB0028; also called C-fusion PD-L1/TGF-β bispecific antibody; heavy chain 500055 + light chain 400085) heavy: not shown light: DVVMTQTPLSLSVTPGQPASISCKSSQSLANSYGNTYLSWYLHKPGQSPQLLIYGISNRFSGVPDRFSGSGSGTDFTLKISRVEAEDVGVYYCLQGTHQPPTFGQGTKLEIKRTVAAPSVFIFPPSDEQLKSGTASVVCLLNNFYPREAKVQWKVDNALQSGNSQESVTEQDSKDSTYSLSSTLTLSKADYEKHKVYACEVTHQGLSSPVTKSFNRGEC
– | – | – | – | – | – | – | – | – | 0.652 | – | – | – | – | – | TGFβRII (Fc fusion) TIPPHVQKSVNNDMIVTDNNGAVKFPQLCKFCDVRFSTCDNQKSCMSNCSITSICEKPQEVCVAVWRKNDENITLETVCHDPKLPYHDFILEDAASPKCIMKEKKKPGETFFMCSCSSDECNDNIIFSEEYNTSNPD
